Assay: microtiter isotope tracer [3H]-cocaine hydrolysis assay of immobilized butyrylcholinesterase variants
Assay type: biochemical
Conditions: relative to wild-type = 1; catalytic efficiency (Vmax/Km), [3H]-cocaine microtiter assay

Molecule | Relative Activity of butyrylcholinesterase variants (WT = 1) with enhanced cocaine hydrolase activity
P285Q (protein, UniProt P06276 29-602, looked up, variant P285Q) Cholinesterase: EDDIIIATKNGKVRGMNLTVFGGTVTAFLGIPYAQPPLGRLRFKKPQSLTKWSDIWNATKYANSCCQNIDQSFPGFHGSEMWNPNTDLSEDCLYLNVWIPAPKPKNATVLIWIYGGGFQTGTSSLHVYDGKFLARVERVIVVSMNYRVGALGFLALPGNPEAPGNMGLFDQQLALQWVQKNIAAFGGNPKSVTLFGESAGAASVSLHLLSPGSHSLFTRAILQSGSFNAPWAVTSLYEARNRTLNLAKLTGCSRENETEIIKCLRNKDPQEILLNEAFVVPYGTQLSVNFGPTVDGDFLTDMPDILLELGQFKKTQILVGVNKDEGTAFLVYGAPGFSKDNNSIITRKEFQEGLKIFFPGVSEFGKESILFHYTDWVDDQRPENYREALGDVVGDYNFICPALEFTKKFSEWGNNAFFYYFEHRSSKLPWPEWMGVMHGYEIEFVFGLPLERRDNYTKAEEILSRSIVKRWANFAKYGNPNETQNNSTSWPVFKSTEQKYLTLNTESTRIMTKLRAQQCRFWTSFFPKVLEMTGNIDEAEWEWKAGFHRWNNYMMDWKNQFNDYTSKKESCVGL | 2.4
P285S (protein, UniProt P06276 29-602, looked up, variant P285S) Cholinesterase: EDDIIIATKNGKVRGMNLTVFGGTVTAFLGIPYAQPPLGRLRFKKPQSLTKWSDIWNATKYANSCCQNIDQSFPGFHGSEMWNPNTDLSEDCLYLNVWIPAPKPKNATVLIWIYGGGFQTGTSSLHVYDGKFLARVERVIVVSMNYRVGALGFLALPGNPEAPGNMGLFDQQLALQWVQKNIAAFGGNPKSVTLFGESAGAASVSLHLLSPGSHSLFTRAILQSGSFNAPWAVTSLYEARNRTLNLAKLTGCSRENETEIIKCLRNKDPQEILLNEAFVVPYGTSLSVNFGPTVDGDFLTDMPDILLELGQFKKTQILVGVNKDEGTAFLVYGAPGFSKDNNSIITRKEFQEGLKIFFPGVSEFGKESILFHYTDWVDDQRPENYREALGDVVGDYNFICPALEFTKKFSEWGNNAFFYYFEHRSSKLPWPEWMGVMHGYEIEFVFGLPLERRDNYTKAEEILSRSIVKRWANFAKYGNPNETQNNSTSWPVFKSTEQKYLTLNTESTRIMTKLRAQQCRFWTSFFPKVLEMTGNIDEAEWEWKAGFHRWNNYMMDWKNQFNDYTSKKESCVGL | 1.9
S287G (protein, UniProt P06276 29-602, looked up, variant S287G) Cholinesterase: EDDIIIATKNGKVRGMNLTVFGGTVTAFLGIPYAQPPLGRLRFKKPQSLTKWSDIWNATKYANSCCQNIDQSFPGFHGSEMWNPNTDLSEDCLYLNVWIPAPKPKNATVLIWIYGGGFQTGTSSLHVYDGKFLARVERVIVVSMNYRVGALGFLALPGNPEAPGNMGLFDQQLALQWVQKNIAAFGGNPKSVTLFGESAGAASVSLHLLSPGSHSLFTRAILQSGSFNAPWAVTSLYEARNRTLNLAKLTGCSRENETEIIKCLRNKDPQEILLNEAFVVPYGTPLGVNFGPTVDGDFLTDMPDILLELGQFKKTQILVGVNKDEGTAFLVYGAPGFSKDNNSIITRKEFQEGLKIFFPGVSEFGKESILFHYTDWVDDQRPENYREALGDVVGDYNFICPALEFTKKFSEWGNNAFFYYFEHRSSKLPWPEWMGVMHGYEIEFVFGLPLERRDNYTKAEEILSRSIVKRWANFAKYGNPNETQNNSTSWPVFKSTEQKYLTLNTESTRIMTKLRAQQCRFWTSFFPKVLEMTGNIDEAEWEWKAGFHRWNNYMMDWKNQFNDYTSKKESCVGL | 4.1
A328W (protein, UniProt P06276 29-602, looked up, variant A328W) Cholinesterase: EDDIIIATKNGKVRGMNLTVFGGTVTAFLGIPYAQPPLGRLRFKKPQSLTKWSDIWNATKYANSCCQNIDQSFPGFHGSEMWNPNTDLSEDCLYLNVWIPAPKPKNATVLIWIYGGGFQTGTSSLHVYDGKFLARVERVIVVSMNYRVGALGFLALPGNPEAPGNMGLFDQQLALQWVQKNIAAFGGNPKSVTLFGESAGAASVSLHLLSPGSHSLFTRAILQSGSFNAPWAVTSLYEARNRTLNLAKLTGCSRENETEIIKCLRNKDPQEILLNEAFVVPYGTPLSVNFGPTVDGDFLTDMPDILLELGQFKKTQILVGVNKDEGTWFLVYGAPGFSKDNNSIITRKEFQEGLKIFFPGVSEFGKESILFHYTDWVDDQRPENYREALGDVVGDYNFICPALEFTKKFSEWGNNAFFYYFEHRSSKLPWPEWMGVMHGYEIEFVFGLPLERRDNYTKAEEILSRSIVKRWANFAKYGNPNETQNNSTSWPVFKSTEQKYLTLNTESTRIMTKLRAQQCRFWTSFFPKVLEMTGNIDEAEWEWKAGFHRWNNYMMDWKNQFNDYTSKKESCVGL | 7

From US20060263345A1, “Butyrylcholinesterase variant polypeptides with increased catalytic efficiency and methods of use” (priority 2003, published 2006)
